{"source": "the DeepSol protein solubility set"}
{"test": "soluble on expression in E. coli; label from the status in PepcDB or PDB records"}
{"sequence": "MLLLPSAADGRGTAITHALTSASTLCQVEPVGRWFEAFVKRRNRNASASFQELEDKKELSEESEDEELQLEEFPMLKTLDPKDWKNQDHYAVLGLGHVRYKATQRQIKAAHKAMVLKHHPDKRKAAGEPIKEGDNDYFTCITKAYEMLSDPVKRRAFNSVDPTFDNSVPSKSEAKDNFFEVFTPVFERNSRWSNKKNVPKLGDMNSSFEDVDIFYSFWYNFDSWREFSYLDEEEKEKAECRDERRWIEKQNRATRAQRKKEEMNRIRTLVDNAYSCDPRIKKFKEEEKAKKEAEKKAKAEAKRKEQEAKEKQRQAELEAARLAKEKEEEEVRQQALLAKKEKDIQKKAIKKERQKLRNSCKTWNHFSDNEAERVKMMEEVEKLCDRLELASLQCLNETLTSCTKEVGKAALEKQIEEINEQIRKEKEEAEARMRQASKNTEKSTGGGGNGSKNWSEDDLQLLIKAVNLFPAGTNSRWEVIANYMNIHSSSGVKRTAKDVIGKAKSLQKLDPHQKDDINKKAFDKFKKEHGVVPQADNATPSERFEGPYTDFTPWTTEEQKLLEQALKTYPVNTPERWEKIAEAVPGRTKKDCMKRYKELVEMVKAKKAAQEQVLNASRAKK", "soluble on expression in E. coli": "not soluble"}
{"sequence": "MTARIYKPAKNAMQSGTAKTREWQLDYEPETPRTIEPLMGWTSSSDMQQQVSLRFHTRDEAVAYCEREGIPYQLIEPKEPVRRRAAYADNFAFRRPEPWTH", "soluble on expression in E. coli": "soluble"}
{"sequence": "MDPLTGVPIRQEVPRLMERTFQENQAETYVLFLINLDRFKLVNDSLGEGYGDQVLQTLVRRLLWQLPNQQWIARVSGDEFIACAAIKGELPKKETLATYISSIIQQPFQVDEVQFTMTASIGAAVYPMDGKSVEMIWNSLERALRHAKARGGNCVSWFCQELKDEWIHPFRLENDLRRAVENQELEHHHHHH", "soluble on expression in E. coli": "soluble"}
{"sequence": "MKKTLTSPLVAAIAHTAAPVHAGTLEDVKARGNLLCSSTTGSPGFSMPDDAGKRHGLEVDVCRAIATAVFGDPERHKIVVLNPIQRFTALQSGEVDILFNTTTWTLSREGAGALYAGVTYYDGQGVLVRKGTIASAKELDGGAICTNQGSTTELNLVDFFRANKVSNEVITFATVQEAANAYESGRCDAWSADAGILAALRSKMKAPDDHVILADRLSKEPLGAAVRKGDDAWFSVVRWSIFALQAAEELGLTSKNIAEQAKSTTNPEVLRFVGKEGSLGKVLGLNGDWAYQIVAQVGSYAEIFDRNIGAASPLNLERGINASWKNGGLFYTPPFR", "soluble on expression in E. coli": "not soluble"}
{"sequence": "SSDKDDIETPLLTEAAPILEDGNCEPAKNSESVDQGAKPESKSEPVVSTRKRPETKPSSDLETSKVLPIQDNVSKDVPQTRWGYWGSWGKSILSSASATVATVGQGISNVIEKAETSLGIPSPSEISTEVKYVAGETNAKENENSSPVAGAFGVFSTISTAVQSTGKSVISGGLDALEFIGKKTMDVIAEGDPGFKRTKGLMNRNATLSQVLREAKEKEEIRTSNEVTVETDKKTHYGLLFDEFQGLSHLEALEMLSQESEIKVKSILNSLSGEELETLKVELEQLKETFSLAEFCEEEEEEKKGDEDFTKDITELFSQLHVSSKPEKLARARNTAHEWIRKSLTKPLAENEEGEKQSEAENTEQVNKNSIEDIHAFAIRSLAELTACSIELFHKTAALVLHGRKQEVTAIERSQTLSQMTIVLCKELSSLSKEFTTCLTTAGVKEMADVLNPLITAVFLEASNSASYIQDAFQLLLPVLEISLIENKIESHRHELQGQKPLLEH", "soluble on expression in E. coli": "soluble"}
{"sequence": "MSLDIFIMDPNEKLTSERLKDFLDRHAARLSRYERLMNMYMGKHPILYEKEKELGKPNNRLVVNFAKYIVDMLNGYFIGIPVKTIHENKEVAAKMKEIAKRNSQNDNNAELSKMCSIYGHAYEFLYQDENAHTRVTYVDPREAFVIYDNTVAQEPLYGVRVLKDDKERPYGTIYSRYDERDFFTSDDGELVIEEKGQEHFFGDVPLIEYVENNERQSAFESVETLINAYNKAISEKANDVDYFADAYLVILGAELDEETIKQIRDNRVINLKSGDGQKIVLEFLDKPNADTTQENLIERLERLIFQISMVANISDEKFGTSSGIALKYKLQPMENIALMKERKFNNGMIRRFKMMFNIPTNFGVDPDEYLNIEYVFTRNIPNNILEEAETAEKLAGITSRQTQLSVLSVVDNVQNELDRIQKEKEGEEINSFNRDMNSPFFGSGELDDGQEEEGHHHHHH", "soluble on expression in E. coli": "not soluble"}
{"sequence": "MSLDSRTELKEIAGVAKRLTLLYVEDDIPTRRFLKRRLEEIFGVVAEAANGEEGLKRFLQGGIDLVISDNIMPFMDGIEMIREIRRVDTRLPIILTTAFIDTDYLMEAINLGVTQFVAKPISMDLLHNAIQMAIQRVVLDNLTRKAKEQEIELLRFQDRYHSLQQESARRKERNLIKNDHYLQTIQGKEGEEWVLDALHRSLEILSGDSYSVRGLDEGRALLFIVDGMGKGLSASVTTTLSIAFLNYLIDERIAQGARVELGSLVGDYLRFIQKELLEEEIISAGFYDFDFKRERLSYITFGMPSMLWVNSQGECERIKSSSPPLMKYSLPPLPQEICIQDLEKILLYSDGLNEALLDEETIYGEILEEELLWNRFLSEMNRRFRSRVKDVDDDITAFWVRRVPQNPSASRSYEIKSSLLEVHRLSDTIEEGLESFGIFDLEASTRFMTALTEMLMNAYEHGSLGVERLTKDQLIQEGSYDEYLAKESKPHRRIRVRLRRYEEGEATLLTCEVEDEGRGFDTQTLLQNLRNEPETLTSGRGIRLTKGLVDHLCFKKGGRVSQFTVVAREALFGNEGHHHHHH", "soluble on expression in E. coli": "not soluble"}
{"sequence": "MEKVNEILSQLTLEEKVKLVVGVGLPGLFGNPHSRVAGAAGETHPVPRVGLPAFVLADGPAGLRINPTRENDENTYYTTAFPVEIMLASTWNRELLEEVGKAMGEEVREYGVDVLLAPAMNIHRNPLCGRNFEYYSEDPVLSGEMASSFVKGVQSQGVGACIKHFVANNQETNRMVVDTIVSERALREIYLRGFEIAVKKSKPWSVMSAYNKLNGKYCSQNEWLLKKVLREEWGFEGFVMSDWYAGDNPVEQLKAGNDLIMPGKAYQVNTERRDEIEEIMEALKEGKLSEEVLDECVRNILKVLVNAPSFKNYRYSNKPDLEKHAKVAYEAGAEGVVLLRNEEALPLSENSKIALFGTGQIETIKGGTGSGDTHPRYAISILEGIKERGLNFDEELAKTYEDYIKKMRETEEYKPRRDSWGTIIKPKLPENFLSEKEIHKLAKKNDVAVIVISRISGEGYDRKPVKGDFYLSDDETDLIKTVSREFHEQGKKVIVLLNIGSPVEVVSWRDLVDGILLVWQAGQETGRIVADVLTGRINPSGKLPTTFPRDYSDVPSWTFPGEPKDNPQKVVYEEDIYVGYRYYDTFGVEPAYEFGYGLSYTTFEYSDLNVSFDGETLRVQYRIENTGGRAGKEVSQVYIKAPKGKIDKPFQELKAFHKTRLLNPGESEEVVLEIPVRDLASFNGEEWVVEAGEYEVRVGASSRNIKLKGTFSVGEERRFKP", "soluble on expression in E. coli": "soluble"}
{"sequence": "MGSDKIHHHHHHMGLNAYIQGFNSLESIDRAPGYFKYHHHSVADHCFRTAELAQMMGDIEEVHGNKKINWKALYEKSLNHDYTERFIGDIKTPVKYATPQLRKMIGDVEETMTTKFIKEEIPKEFQEIYTRRLSEGKDDTLEGKILSVCDKLDLLYEAYGEIELGNPNPVYMQMFKESLETIKKFDDLVCVQYFIKKILPDLFKGDFAGKDKMQRIAFSILLLGDDE", "soluble on expression in E. coli": "not soluble"}
{"sequence": "MGSDKIHHHHHHMTLDPDAKLPETEEGTVVYNTDPLIIRSHYEIDYIHSYAQDSEFFRALGRKKLMGSKCKKCGYVYATPRSHCMMCGSETEWYELPLKGRVHTYTTCYFSGEEFLNETPFNLILVEFDGVNSLFMSRLIGAETKDIYIGMPVKAKFRRNLKMNVTDVYFVPDVEK", "soluble on expression in E. coli": "not soluble"}
{"sequence": "MSLKVQGYANVVTLPNVTGRVIIVGDIHGCRAQLEDLLRAVSFKQGSDTLVAVGDLVNKGPDSFGVVRLLKRLGAYSVLGNHDAKLLKLVKKLGKKECLKGRDAKSSLAPLAQSIPTDVETYLSQLPHIIRIPAHNVMVAHAGLHPQRPVDRQYEDEVTTMRNLIEKEQEATGGVTLTATEETNDGGKPWASMWRGPETVVFGHDARRGLQEQYKPLAIGLDSRCVYGGRLSAAVFPGGCIISVPGWNGASAAAEGHHHHHH", "soluble on expression in E. coli": "soluble"}
{"sequence": "MIRLTNIKLPLDHQEHELEQAILTKLSIKAVQLIKFTVFKRGYDARKKNSIFLIYTLDVETNVDEALLATFIADTQVKETPDMAYKFVSQAPKNLKNRPVVIGMGPCGLFVGLVLAQMGFNPIVLERGQEVRQRTKDTFGFWRKKILNTESNVQFGEGGAGTFSDGKLYSQVKDPKHYSRKVLHEFVAAGAPEEILYVSKPHIGTFKLVTMVEKMRAKIFELGGEVRFNQRVDKIHFTDVEGNECTAQGIEGYQNKKVTGLTLSNGDHIETNYIALAIGHSARDTFSMLFDEDVYMKAKPFSVGFRIEHEQAVIDEARFGNNAGNEILGSADYKLVHHCSNGRSVYSFCMCPGGTVVAAASEEGRLVTNGMSQYSRLERNANSAIVVGIEPEDFITSEFASDRDYVLAGMEFQRNLEAKAFKLGGESYDAPVQLVGDFLAGRKSGEHGSVAPSYKPGVTYCDLSETLPDYAIAAIREALPAFDKKIKGFSMAEATLTAVETRTSSPIQITRDKETLQSLNAQGLYPAGEGAGYAGGILSAGIDGIKIAEAMALAITAEQEHLEHHHHHH", "soluble on expression in E. coli": "not soluble"}
{"sequence": "MGSDKIHHHHHHVRVPLLDRDHPRYGNDRFWPGMRAELAKLWRERGHAPILNPPRPRARTHKIQESRSMHLEVLRVPPTTADPEMADRPPLVFVHGAFAGAWCWRETFMPWFAARGWDTHALSLRGHGASDGAERLDSTRLADYADDLRRVIDELDRPPVLIGHSMGGMVVQKVLEDTQAAAAVLLASVPPTGLFSGSVLMALRHPLLCMALWRIQTFGPEEASLRMVEAGLFSTPLDAREAERYTALLQNESSRVVLDMTWFDVPRRRCPQELPLLVLGAEDDAFVPPIEVLATAAFHGTTAQLLPDIGHAMMLDRGWEKTASVMEEWLRCSAF", "soluble on expression in E. coli": "not soluble"}
{"sequence": "MSLKQYKILLIVADGLGDRPVSKLNGLTPLEAANKPAITDLLKNSMIGLMDPISPGIIPGSDTSHLSIFGLDPHVYYRGRGAFEALGAGATLSHGDVAFRGNFATVNNDLVVVDRRAGRKLEEGEQLVKELNEKIKEINDVKIKFYKGTEHRIAVVLSGKGISDKVSDTDPHHEGLKVLESKPLEDSNEAIRTAEIINILTRKVFDVLNSSEINKRRIEQGEKPANIVLLRGAAHYVKLPPFSSYTKLKAAAVSATALIKGICRELGMNVITPSGATGGIDTNYNAKAKAAIELLKENDFVFLHIKATDAASHDGLVEEKVKAIERIDRVIGAIIDNIGRDNLILMFTGDHVTPVEIKEHTGDPVPVLLYVPYPIINDNVGDFNEKEARKGSLRIRGLDVTNILLNYSNRAEKYGSEGHHHHHH", "soluble on expression in E. coli": "soluble"}
{"sequence": "MSLRNPIRIFIVDDHEIVRQGLKVIINQEQDFELVGESNGQKGLLKEIAEAHPDVLLLDIRISGSDGFDIASQLNEKFPSIKILIISGYESELYLVEALDHKVSGFIPKGSSRDYVCSAIRMVALGGTVWHGELLYRVIRGLSRLGNEPNDTKVQIGKSHLKPRELKVLSLLAKGKLNKEICFELQISMDTVKKDIHQLKSKYGVFNRTQLATIATEMQLKEGHHHHHH", "soluble on expression in E. coli": "not soluble"}
{"sequence": "MGSDKIHHHHHHMSDFHHGVQVVEINDGTRVISTVSTAIIGMVCTASDADAATFPLNKPALITSVQSAIAKAGTKGTLAASLQAIADQSKPVIVVVRVAEGTGDDAEAQTISNIIGGTDESGNYTGLKALLTAEAVTGVKPRILGVPGLDSLEVATALAPICQKLRAFGYISAWDCQNISEAMLYRENFSQRELMVIWPDFLAWDTTANATETVWATARALGLRAKIDQDTGWHKTLSNVGVNGVTGISASVFWDLQESGTDADLLNEAGVTTLIRKDGFRFWGNRCCSDDPLFLFENYTRTAQVIADTMAAGHMWAVDKPITATLIKDIVAGINAKFREMKTAGYIVDATCWFDESANDAATLKAGKLYIDYDYTPVPPLENLTLRQRITDKYLANLVSSVNSN", "soluble on expression in E. coli": "not soluble"}
{"sequence": "MSCMGAAVNIITTDGPAGRAGFTASAVCSVTDTPPTLLVCLNRGASVWPVFNENRTLCVNTLSAGQEPLSNLFGGKTPMEHRFAAARWQTGVTGCPQLEEALVSFDCRISQVVSVGTHDILFCAIEAIHRHTTPYGLVWFDRSYHALMRPAC", "soluble on expression in E. coli": "not soluble"}
